Assay results from patent US5721126.

Target: T1, ScaI restriction endonuclease (Streptomyces caespitosus) (UniProt O52691)
T1 sequence: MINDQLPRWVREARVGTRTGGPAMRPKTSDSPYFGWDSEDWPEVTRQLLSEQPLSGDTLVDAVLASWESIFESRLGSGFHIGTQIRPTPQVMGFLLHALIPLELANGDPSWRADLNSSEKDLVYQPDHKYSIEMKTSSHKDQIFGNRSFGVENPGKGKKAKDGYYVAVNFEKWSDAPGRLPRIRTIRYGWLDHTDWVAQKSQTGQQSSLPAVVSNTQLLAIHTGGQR
Experiment: cleavage_in_vitro
Conditions: diluted cell extract, 1 ug DNA, 37 C, 1 h

lambda DNA (ScaI sites)
activity (units/g wet cells): 1e+06
